Measured values published in publication PMC6420115.

Each substance was assayed against minimal NANP3 peptide (assay: SPR). Conditions: parent: est. 2.1e-6 M; read off a plot.

Row | Substance | Kd [nM]
1 | 2163 IgG (germline antibody 2163) H:N56K | 2600
2 | 2163 IgG (germline antibody 2163) H:V50I | 130
3 | 2163 IgG (germline antibody 2163) H:S31N | 1500
4 | 2163 IgG (germline antibody 2163) H:N56K; K:S93N | 2600

These substances were tested against full length PfCSP (NF54 strain) (Plasmodium falciparum (NF54 strain)) (UniProt P19597) (assay: not given). Conditions: not given.
Chain of full length PfCSP (NF54 strain) (Plasmodium falciparum (NF54 strain)) (P19597 19-374): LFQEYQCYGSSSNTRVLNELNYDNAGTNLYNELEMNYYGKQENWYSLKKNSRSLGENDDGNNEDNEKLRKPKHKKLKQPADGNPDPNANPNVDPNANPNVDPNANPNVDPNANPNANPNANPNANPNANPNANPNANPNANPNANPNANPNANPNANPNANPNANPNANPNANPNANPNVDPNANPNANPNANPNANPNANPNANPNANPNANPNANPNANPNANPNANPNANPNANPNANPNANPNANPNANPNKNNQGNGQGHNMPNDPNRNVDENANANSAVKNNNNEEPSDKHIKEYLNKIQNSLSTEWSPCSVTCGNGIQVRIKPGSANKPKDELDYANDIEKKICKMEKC

Row | Substance | other [µg/mL]
5 | 2163_H.S31_Nmut IgG (antibody) | 0.12
6 | 1210_H.N31_Srev IgG (antibody) | 0.14
7 | 2163_KN IgG (2163_H.N56_Kmut_K.S93_Nmut) (antibody) | 0.21

Next, values leading:

Row | other [µg/mL] | Substance
8 | 0.17 | 1210_NS IgG (1210_H.K56_Nrev_K.N93_Srev) (antibody)
9 | 0.16 | 1210_H.V50_Imut IgG (antibody)
10 | 0.14 | 1210_H.K56_Nrev IgG (antibody)
11 | 0.2 | 2163 IgG (germline antibody 2163)
12 | 0.16 | 2163_H.V50_Imut IgG (antibody)
